Assay [1] in a line: Biochemical fractionation of 293T cells expressing GST-p12. It is filed as cell-based. As to conditions: cycling cells, ~40 h expression, immunoblot of S2, S3, P3. As for the experimental part:
GST-p12 proteins were expressed in 293T cells from pCAGGS/GST-derived plasmids by transient transfection using Turbofect (Thermo Fisher Scientific). Cell media was changed 24 h after transfection, and cells were incubated overnight at 37°C, before being harvested, counted, pelleted (500 g, 5 min) and snap frozen in dry ice/ethanol. Biochemical fractionation of cells was performed essentially as described in [14]. Briefly, cell pellets thawed on ice were resuspended at 2.5× 10^7 cells/ml in buffer 1 (10 mm HEPES pH 7.9, 10 mm KCl, 1.5 mm MgCl2, 10% glycerol, 0.34 m sucrose, 1 mm DTT and protease inhibitors) and then supplemented with 0.1% Triton-X-100. Cells were incubated on ice for 5 min and nuclei (P1) were collected by centrifugation at 1300 g, 5 min, 4°C. The supernatant (S1) was clarified by further centrifugation (5 min, 20 000 × g, 4°C) to collect the cytosolic supernatant fraction (S2). The P1 nuclei were washed once with buffer 1 and then lysed for 30 min in buffer 2 (3 mM EDTA, 0.2 mM EGTA and 1 mM DTT, protease inhibitors). The chromatin (P3) and soluble nuclear (S3) fractions were separated by centrifugation (5 min, 1700 g, 4°C). The S2, S3 and P3 fractions were analysed by immunoblotting.
(A western blot detects proteins with antibodies after separation by electrophoresis.)

The test system of assay [2] is cellular proteins of mitotic 293T cells. Description: SILAC-MS of GST-p12_WT relative to GST-p12_mut14. The class given is binding. As to conditions: log2(H/M) >2.58 SDs from mean in both replicates. As for the experimental part: (§1) For SILAC-MS experiments, 293T cells were grown is media containing light (R0K0, ^12C-Arginine and ^12C-Lysine), medium (R6K4, ^13C-Arginine and Lysine-4,4,5,5-d4) or heavy (R10K8, ^13C+^15N-Arginine and ^13C+^15N-Lysine) versions of L-Arginine and L-Lysine amino acids (Pierce) for a minimum of 6 doublings before transient expression of GST-p12 proteins. After performing the glutathione-sepharose pull-down assays equivalent volumes of the beads eluates were pooled and submitted to the Bristol University Proteomics Facility for RP nano-LC-MS/MS analysis. This analysis was performed on an LTQ-Orbitrap Velos mass spectrometer in line with a Dionex Ultimate 3000 nanoHPLC system as described in [53].
Supplementary file ppat.1007117.s002.tif: S2 Fig SILAC results showing no significant difference in protein complexes of Mo-MLV GST-p12_mut14 compared to GST-p12_WT. (Links to Fig 4). GST, Mo-MLV GST-p12_mut14 or GST-p12_WT were transiently-expressed in 293T cells cultured in light (L), medium (M) or heavy (H) SILAC media, respectively. GST-protein complexes were precipitated from mitotic cell lysates and analysed by LC-MS/MS. (A) To identify proteins enriched in the GST-p12_WT (H) sample relative to the GST-p12_mut14 (M) sample, log2(H/M) silac ratios of each set of MS hits (FDR <5%) from replicates (R1 and R2) were plotted as a frequency distribution. […]

The subject of the next assay is GST-p12_WT. As to the kind of experiment: SILAC-MS of proteins enriched with GST-p12_WT relative to GST. It is filed as binding, Mo-MLV. As to conditions: log2(H/L) >2.58 SDs from mean.
Source text: To test whether GST-p12 was acting like the p12 region of Gag, we used a global proteomic approach based on stable isotope labelling by amino acids in cell culture (SILAC)-mass spectrometry (MS) to look for host proteins that interact with GST-p12 [35, 36]. A schematic diagram of the workflow is illustrated in Fig 4A. Briefly, GST, GST-p12_mut14 and GST-p12_WT were transiently-expressed in 293T cells cultured in light (R0/K0), medium (R6/K4) and heavy (R10/K8) SILAC media, respectively. Next, lysates of nocodazole treated transfected cells were prepared, normalised and used for parallel pull-down assays with glutathione-sepharose beads. The eluates from the beads were then pooled in a 1:1:1 ratio and subjected to LC-MS/MS analysis. The experiment was performed using biological replicates to test reproducibility of the mass-spec hits. The pull-down assays for this experiment were performed using mitotic cell lysates to facilitate identification of any potential chromatin interactions that were previously missed.
After removal of obvious contaminants (e.g. keratin) and non-quantified hits, 948 and 879 proteins were identified in replicates 1 and 2 (R1 and R2) of the experiment respectively (the false discovery rate (FDR) was set at 5%). To select proteins enriched in the heavy-labelled (H) GST-p12_WT sample relative to the light-labelled (L) GST sample, we compared the log2(H/L) silac ratios of the mass-spectrometry hits. When plotted as a frequency distribution, the log2(H/L) ratios of each replicate fitted well to a normal distribution curve (R^2 ≥ 0.98), allowing the mean and standard deviation to be accurately estimated (Fig 4B). In this experiment, contaminants/non-specifically bound cellular proteins were assumed to cluster around the mean of the distribution. […] Twenty one such proteins were identified in R1 and 22 identified in R2 (Fig 4B Venn diagram). […] These proteins were then ranked based on normalised abundance in the group. In mass-spectrometry analysis, larger proteins are in general assigned higher scores. Therefore, to control for protein size, we divided the number of peptide spectral matches identified for each protein with its length and then normalised the values across the group (Fig 4C and 4D). When ranked this way, the clathrin heavy chain (CLTC), clathrin interactor 1 (CLINT1) and NEDD4-like E3 ubiquitin ligase (WWP2) were identified as the top three hits. […] The function of clathrin in MLV infection is unclear. […] Thus, clathrin binding may be relevant to the early stages of MLV replication and should be investigated further.
as §1
Supplementary file ppat.1007117.s005.xlsx: S1 Table Results from the first SILAC-MS analysis. GST, Mo-MLV GST-p12_mut14 or GST-p12_WT were transiently-expressed in 293T cells cultured in light (R0/K0), medium (R6/K4) and heavy (R10/K8) SILAC media, respectively. Mitotic cell lysates were subsequently used for glutathione-sepharose bead pull-down assays. Bead eluates were pooled in a 1:1:1 ratio and then analysed by LC-MS/MS. […] (XLSX) Click here for additional data file.

B1: GST-p12_WT: N-terminally GST-tagged Mo-MLV p12 (protein)
chain: PALTPSLGAKPKPQVLSDSGGPLIDLLTEDPPPYRDPRPPPSDRDGNGGEATPAGEAPDPSPMASRLRGRREPPVADSTTSQAF
modifications: left off: GST, N-terminal, kept
notes: N-terminally GST-tagged Mo-MLV p12
With B1, in assay [1], the “sub-cellular distribution by fractionation” value is given as “mainly cytoplasmic”. Also, the “proteins significantly enriched vs GST-p12_mut14” value in assay [2] is reported as “no proteins that passed the criteria for significant enrichment”. The “number of proteins significantly enriched vs GST in both replicates” value in the assay on GST-p12_WT (R1 and R2) is “seven”. Moreover, the “number of proteins significantly enriched vs GST” value is “Twenty one” in the assay on GST-p12_WT (replicate 1) and 22 proteins in the assay on GST-p12_WT (replicate 2).

Source of the values: article PMC6021111, “Murine leukemia virus p12 tethers the capsid-containing pre-integration complex to chromatin by binding directly to host nucleosomes in mitosis” (PLoS Pathogens, 2018).
